Assays:
[1] = target: HBc protein (core protein) of hepatitis B virus genotype D (hepatitis B virus genotype D); experiment: reassociation by dialysis, tested by electron microscopy, DLS, SDS-PAGE and NAGE; purified HBc dimers dialysed from dissociation buffer against PBS at +4 °C overnight; dimers to VLPs (empty capsids)
[2] = target: HBc protein (core protein) of hepatitis B virus genotype D (hepatitis B virus genotype D); experiment: SEC; VLPs incubated in GuHCl- and LiCl-containing dissociation buffer, +4 °C, 16 h; debris removed; supernatant on a Superose6 or Superdex200 column in dissociation buffer; capsid to dimers, the dimer stays
[3] = target: HBc protein (core protein) of hepatitis B virus genotype G (hepatitis B virus genotype G); experiment: reassociation by dialysis, tested by electron microscopy, DLS, SDS-PAGE and NAGE; purified HBc dimers dialysed from dissociation buffer against PBS at +4 °C overnight; dimers to VLPs (empty capsids)
[4] = target: HBc protein (core protein) of hepatitis B virus genotype G (hepatitis B virus genotype G); experiment: SEC; VLPs incubated in GuHCl- and LiCl-containing dissociation buffer, +4 °C, 16 h; debris removed; supernatant on a Superose6 or Superdex200 column in dissociation buffer; capsid to dimers, the dimer stays
[5] = target: HBc protein (core protein) of hepatitis B virus genotype F (hepatitis B virus genotype F); experiment: reassociation by dialysis, tested by electron microscopy, DLS, SDS-PAGE and NAGE; purified HBc dimers dialysed from dissociation buffer against PBS at +4 °C overnight; dimers to VLPs (empty capsids)
[6] = target: HBc protein (core protein) of hepatitis B virus genotype F (hepatitis B virus genotype F); experiment: SEC; VLPs incubated in GuHCl- and LiCl-containing dissociation buffer, +4 °C, 16 h; debris removed; supernatant on a Superose6 or Superdex200 column in dissociation buffer; capsid to dimers, the dimer stays

Question: Which results are given for “HBc protein (core protein) of hepatitis B virus genotype D (natural protein)”?
Answer: Reassociated dimers (percent of dimers reassociated in VLPs) [1]: 80%; Dimer content [2]: 30%; percent of the treated soluble VLPs as dimers [2]: 70%; stoichiometry N [2]: 2

Question: Which results are given for “HBc protein (core protein) of hepatitis B virus genotype G (natural protein)”?
Answer: Reassociated dimers (percent of dimers reassociated in VLPs) [3]: 90%; Dimer content [4]: 30%; percent of the treated soluble VLPs as dimers [4]: 80%; stoichiometry N [4]: 2

Question: Which results are given for “HBc protein (core protein) of hepatitis B virus genotype F (natural protein)”?
Answer: Reassociated dimers (percent of dimers reassociated in VLPs) [5]: 80%; Dimer content [6]: 30%; percent of the treated soluble VLPs as dimers [6]: 40%; stoichiometry N [6]: 2
